Measurements taken from US20250019437A1.
Residue numbers refer to the chain shown, from its start.

B1: 6E7 antibody affinity modulation variant V73 (antibody, V domains shown)
VH: EVQLVQSGAEVKKPGESLKISCKGSGYSFGSYWIAWVRQMPGKGLEWMGIIYPGDSDTRYSPGFQGQVTISADKSISTAYLQWSSLKASDTAMYFCARGRTFYYDSSDYFDYWGQGTLVTVSS
VL: DIQMTQSPSSVSASVGDRVTITCRASQGISSWLAWYQQKPGKAPKLLIYAASSRQNGVPSRFSGSGSGTDFTLTISSLQPEDFATYFCQQADSYPRTFGQGTKLEIK
B2: 6E7 antibody affinity modulation variant V2 (antibody, V domains shown)
VH: B1 VH with Y27S, G30T, S56G, G63S, G99S
VL: B1 VL with S93R, Y94F
B3: 6E7 antibody affinity modulation variant V76 (antibody, V domains shown)
VH: B1 VH with G63E, G99Q, F110S
VL: B1 VL with R54L, N56K, T69R, Y94F
B4: 6E7 antibody affinity modulation variant V75 (antibody, V domains shown)
VH: B1 VH with G30T, G63S
VL: B1 VL with R54L, N56A
B5: 6E7 antibody affinity modulation variant V88 (antibody, V domains shown)
VH: B1 VH with G63S, G99Q
VL: B1 VL with S53R, R54L, N56R, Y94S
B6: 6E7 antibody affinity modulation variant V86 (antibody, V domains shown)
VH: B1 VH with I34L, G63S, Q65E, G99S
VL: B1 VL with Y94F
B7: 6E7 antibody affinity modulation variant V85 (antibody, V domains shown)
VH: B1 VH with G30R, I50T, G63S, G99S
VL: B1 VL with Y94F
B8: 6E7 antibody affinity modulation variant V84 (antibody, V domains shown)
VH: B1 VH with S28G, G30T, G63S, G99Q, F110S
VL: B1 VL with A50G, R54L, Y94F
B9: 6E7 antibody affinity modulation variant V3 (antibody, V domains shown)
VH: B1 VH with G30A, G63S, G66D
VL: B1 VL with S93R, Y94F
B10: 6E7 antibody affinity modulation variant V77 (antibody, V domains shown)
VH: B1 VH with G30T, G63S, G99Q
VL: B1 VL with Y94F
B11: 6E7 antibody affinity modulation variant V74 (antibody, V domains shown)
VH: B1 VH with G30A, T58V, G63S
VL: B1 VL with R54L, N56L, Y94F
B12: 6E7 antibody affinity modulation variant V87 (antibody, V domains shown)
VH: B1 VH with G30R, T58V, G63D, G99S
VL: B1 VL with R54L, N56W, Y94F

These binders were tested against T1, human TREM2 (triggering receptor expressed on myeloid cells 2) (human) (UniProt Q9NZC2) (assay: 2nd screen, 2 nM Ab).
T1 sequence (looked up): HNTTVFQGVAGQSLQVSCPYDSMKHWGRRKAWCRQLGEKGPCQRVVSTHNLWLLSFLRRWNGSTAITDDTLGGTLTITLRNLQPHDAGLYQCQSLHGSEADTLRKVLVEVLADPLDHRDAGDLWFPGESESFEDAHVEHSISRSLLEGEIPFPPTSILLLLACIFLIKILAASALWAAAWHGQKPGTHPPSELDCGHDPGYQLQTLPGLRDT
With B1 the Binding Signal (fold over 6E7 parental antibody) was 4.17 fold.
For B2, the Binding Signal (fold over 6E7 parental antibody) was 2.23 fold.
For B3, the Binding Signal (fold over 6E7 parental antibody) was 4.34 fold.
With B4 the Binding Signal (fold over 6E7 parental antibody) was 3.74 fold.
B5 gave a Binding Signal (fold over 6E7 parental antibody) of 5.57 fold.
B6 was tested, and the Binding Signal (fold over 6E7 parental antibody) was 5.17 fold.
For B7, the Binding Signal (fold over 6E7 parental antibody) was 5.41 fold.
B8 showed a Binding Signal (fold over 6E7 parental antibody) of 1.45 fold.
With B9 the Binding Signal (fold over 6E7 parental antibody) was 1.95 fold.
For B10, the Binding Signal (fold over 6E7 parental antibody) was 0.83 fold.
B11 gave a Binding Signal (fold over 6E7 parental antibody) of 2.54 fold.
B12 gave a Binding Signal (fold over 6E7 parental antibody) of 4.86 fold.

Each binder was assayed against T1, human TREM2 (triggering receptor expressed on myeloid cells 2) (human) (assay: 2nd screen, 10 nM Ab).
B1 gave a Binding Signal (fold over 6E7 parental antibody) of 5.44 fold.
Work on B2 yielded a Binding Signal (fold over 6E7 parental antibody) of 2.9 fold.
Binder B3 has a Binding Signal (fold over 6E7 parental antibody) of 4.93 fold.
With B4 the Binding Signal (fold over 6E7 parental antibody) was 4.52 fold.
For B5, the Binding Signal (fold over 6E7 parental antibody) was 5.3 fold.
B6 showed a Binding Signal (fold over 6E7 parental antibody) of 5.02 fold.
Binder B7 has a Binding Signal (fold over 6E7 parental antibody) of 5.37 fold.
Binder B8 has a Binding Signal (fold over 6E7 parental antibody) of 1.62 fold.
For B9, the Binding Signal (fold over 6E7 parental antibody) was 2.24 fold.
Work on B10 yielded a Binding Signal (fold over 6E7 parental antibody) of 1.38 fold.
B11 was tested, and the Binding Signal (fold over 6E7 parental antibody) was 4.01 fold.
With B12 the Binding Signal (fold over 6E7 parental antibody) was 3.93 fold.

Each binder was assayed against T1, human TREM2 (triggering receptor expressed on myeloid cells 2) (human) (assay: 1st screen, 10 nM Ab).
B1 showed a Binding Signal (fold over 6E7 parental antibody) of 5.12 fold.
Binder B2 has a Binding Signal (fold over 6E7 parental antibody) of 2.55 fold.
Work on B3 yielded a Binding Signal (fold over 6E7 parental antibody) of 4.57 fold.
B4 showed a Binding Signal (fold over 6E7 parental antibody) of 4.64 fold.
B5 was tested, and the Binding Signal (fold over 6E7 parental antibody) was 4.92 fold.
Work on B6 yielded a Binding Signal (fold over 6E7 parental antibody) of 4.8 fold.
Work on B7 yielded a Binding Signal (fold over 6E7 parental antibody) of 5.41 fold.
Binder B8 has a Binding Signal (fold over 6E7 parental antibody) of 1.44 fold.
With B9 the Binding Signal (fold over 6E7 parental antibody) was 1.97 fold.
In the case of B10, the Binding Signal (fold over 6E7 parental antibody) is reported as 1.43 fold.
B11 showed a Binding Signal (fold over 6E7 parental antibody) of 3.94 fold.
B12 showed a Binding Signal (fold over 6E7 parental antibody) of 3.84 fold.
